Biological target: human IGF-1R on cells (human, UniProt P08069 31-740; P08069 741-1367)
Assay: cell-based or functional assay

Sequence of human IGF-1R on cells (P08069 31-740, chain 1 of 2): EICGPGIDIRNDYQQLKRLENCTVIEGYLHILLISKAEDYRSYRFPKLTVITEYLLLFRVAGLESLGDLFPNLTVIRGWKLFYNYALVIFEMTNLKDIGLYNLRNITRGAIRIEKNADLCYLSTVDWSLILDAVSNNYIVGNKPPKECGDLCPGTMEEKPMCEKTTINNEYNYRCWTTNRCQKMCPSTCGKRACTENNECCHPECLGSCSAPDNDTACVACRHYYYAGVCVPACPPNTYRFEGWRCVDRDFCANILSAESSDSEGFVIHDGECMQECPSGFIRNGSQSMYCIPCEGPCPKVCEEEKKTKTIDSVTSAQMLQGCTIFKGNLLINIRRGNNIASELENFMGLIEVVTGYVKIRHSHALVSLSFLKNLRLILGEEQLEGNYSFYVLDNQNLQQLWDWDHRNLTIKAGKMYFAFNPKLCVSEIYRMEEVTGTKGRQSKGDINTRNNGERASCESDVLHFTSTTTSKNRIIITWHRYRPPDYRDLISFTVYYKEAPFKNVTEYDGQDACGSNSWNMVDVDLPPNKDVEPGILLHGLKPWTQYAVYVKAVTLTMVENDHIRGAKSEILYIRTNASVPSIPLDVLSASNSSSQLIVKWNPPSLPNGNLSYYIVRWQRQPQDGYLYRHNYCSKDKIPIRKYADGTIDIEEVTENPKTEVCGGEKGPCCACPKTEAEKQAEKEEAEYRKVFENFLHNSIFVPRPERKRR
Sequence of human IGF-1R on cells (P08069 741-1367, chain 2 of 2): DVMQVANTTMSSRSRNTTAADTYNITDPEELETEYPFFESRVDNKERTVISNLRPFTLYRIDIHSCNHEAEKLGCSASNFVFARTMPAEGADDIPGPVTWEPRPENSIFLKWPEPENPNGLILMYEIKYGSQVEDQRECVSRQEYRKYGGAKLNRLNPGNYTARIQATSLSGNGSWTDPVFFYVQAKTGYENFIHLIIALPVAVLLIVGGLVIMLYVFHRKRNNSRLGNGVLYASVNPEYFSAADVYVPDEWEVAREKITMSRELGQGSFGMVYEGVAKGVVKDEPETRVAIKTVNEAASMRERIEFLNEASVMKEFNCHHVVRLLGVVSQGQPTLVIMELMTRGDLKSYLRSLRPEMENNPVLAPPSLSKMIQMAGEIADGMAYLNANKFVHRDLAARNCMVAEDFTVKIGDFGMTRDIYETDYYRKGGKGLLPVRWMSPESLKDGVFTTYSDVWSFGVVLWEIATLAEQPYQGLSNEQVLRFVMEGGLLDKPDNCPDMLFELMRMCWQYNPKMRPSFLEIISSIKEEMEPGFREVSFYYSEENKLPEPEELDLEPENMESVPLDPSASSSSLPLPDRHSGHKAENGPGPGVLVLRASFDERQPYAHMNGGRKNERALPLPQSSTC

inhibition of IGF-1 and IGF-2 mediated IGF-1R receptor phosphorylation, EC50 [nM]	Binder
< 1	M14-C03.G4.P.agly (antibody, human IgG4 S228P, kappa, V domains shown) VH: EVQLLESGGGLVQPGGSLRLSCAASGFTFSKYMMSWVRQAPGKGLEWVSYISPSGGLTWYADSVKGRFTISRDNSKNTLYLQMNSLRAEDTAVYYCARDGARGYGMDVWGQGTTVTVSS VL: DIQMTQSPATLSLSPGERATLSCRASQSVSSYLAWYQQKPGQAPRLLIYDASNRATGIPARFSGSGSGTDFTLTISSLEPEDFAVYYCQQRSNWPPEVTFGPGTKVDIKR
< 1	M14-G11.G4.P (antibody, V domains shown) VH: EVQLLESGGGLVQPGGSLRLSCAASGFTFSNYPMYWVRQAPGKGLEWVSRISSSGGRTVYADSVKGRFTISRDNSKNTLYLQMNSLRAEDTAVYYCARDRWSRSAAEYGLGGYWGQGTLVTVSS VL: not shown
< 1	M13-C06.G4.P.agly (antibody, human IgG4 S228P, kappa, V domains shown) VH: EVQLLESGGGLVQPGGSLRLSCAASGFTFSIYRMQWVRQAPGKGLEWVSGISPSGGTTWYADSVKGRFTISRDNSKNTLYLQMNSLRAEDTAVYYCARWSGGSGYAFDIWGQGTMVTVSS VL: DIQMTQSPLSLSASVGDRVTITCQASRDIRNYLNWYQQKPGKAPKLLIYDASSLQTGVPSRFGGSGSGTDFSFTIGSLQPEDIATYYCQQFDSLPHTFGQGTKLEIKR

Source: patent US20070243194A1 (Biogen, published 2007)
